Measurements taken from patent publication US20230045284.

T1: GST-Rit2, Q99578
T1 chain: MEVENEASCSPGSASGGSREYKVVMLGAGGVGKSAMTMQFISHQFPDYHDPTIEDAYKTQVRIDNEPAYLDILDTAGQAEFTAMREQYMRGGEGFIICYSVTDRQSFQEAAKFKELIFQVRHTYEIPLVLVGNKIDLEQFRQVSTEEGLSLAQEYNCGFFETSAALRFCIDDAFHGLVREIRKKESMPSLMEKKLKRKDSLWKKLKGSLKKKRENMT

B1: Recombinant 6xHis-tagged DUF5Ah (A. hydrophila ATCC7966 MARTXAh P3069-V3570) (protein)
chain: PGKTGVTERTARLFADVYSPDELKKAAQVFAKPIGESYQQILDQLATLHGASGQAKVEAALRLNNLIDDYLVKHEGSGRNPALSKLQSQLHGNLYRGELASLQAEVTALAKTRPDLAAIVIGKAAEEAQGQHPGLTQMVLRWAAQDPYLAAKAGYQGVVPADLPFDARFHIALGEQHDDLKKWLTEAQGKGLLNRAVLDDTRKVLHLGYSYQELQDMTGEQSAQMAVYFIKEAAKQAAPGSELSAELIMLDKFGDRRYLGELESRRIAQIENIYHSSKQTDVAAWDARYGGDALRTLNNQLDGESTLAGQLSRLLDNRNGLLIGETHGSDVNGLRFVNEQMDALKIQGVTVIALEHLRSELAQPLIDRYLAGGEMSPELTSMLKNKHLEPSLFERARERGMRIVALDDGSTARPAIAGTEHGLMYRAGAANNVAVEVLGKLPAGEKFVAIYGSAHLGSHKGIEGFVPGITHRLGLPALKVDADNRFHLQADDVSQRVEYADVGRKWTPVAAL
B2: Recombinant 6xHis-tagged DUF5Vv (rDUF5Vv; V. vulnificus CMCP6 MARTXVv Q3596-L4089) (protein)
chain: QELKERAKVFAKPIGASYQGILDQLDLVHQAKGRDQIAASFELNKKINDYIAEHPTSGRNQALTQLKEQVTSALFIGKMQVAQAGIDAIAQTRPELAARIFMVAIEEANGKHVGLTDMMVRWANEDPYLAPKHGYKGETPSDLGFDAKYHVDLGEHYADFKQWLETSQSNGLLSKATLDESTKTVHLGYSYQELQDLTGAESVQMAFYFLKEAAKKADPISGDSAEMILLKKFADQSYLSQLDSDRMDQIEGIYRSSHETDIDAWDRRYSGTGYDELTNKLASATGVDEQLAVLLDDRKGLLIGEVHGSDVNGLRFVNEQMDALKKQGVTVIGLEHLRSDLAQPLIDRYLATGVMSSELSAMLKTKHLDVTLFENARANGMRIVALDANSSARPNVQGTEHGLMYRAGAANNIAVEVLQNLPDGEKFVAIYGKAHLQSHKGIEGFVPGITHRLDLPALKVSDSNQFTVEQDDVSLRVVYDDVANKPKITFKGSL
B3: Recombinant 6xHis-tagged DUF5Pa (P. asymbiotica ATCC43949 hypothetical protein, P41-V532) (protein)
chain: MVFEHDKTVERKRKPSIQLGNDKEKSSEQALELPQSKQNNPLLHDLITSNNLRKEAAVFAKQIGPSYQGILDGLEHLHNLSGNEQLTAGFELHRRITRYLEEHPDSKRNAALRRTQTQLGDLMFTGTLQEVRHPLLEMAETRPAMASQIYQIARDEAKGNTPGLTDLMVRWVKEDPYLAAKSGYQGKIPNDLPFEPKFHVELGDQFGEFKTWLDTAQNQGLLTHTRLDEQNKQVHLGYSYNELLDMTGGVESVKMAVYFLKEAAKQAEPGSAKSQEAILLNRFANPAYLTQLEQGRLAQMEAIYHSSHNTDVAAWDQQFSPDALTQFNHQLDNSVDLNSQLSFLLKDRQGLLIGESHGSDLNGLRFVEEQMDALKAHGVTVIGLEHLRSDLAQPLIDKFLTSENEPMPAELAAMLKTKHLSVNLFEQARSKQMKIIALDNNSTTRPAEGEHSLMYRAGAANNVAVERLQQLPAEEKFVAIYGNAHLQSHEGIDHFLPGITHRLGLPALKVDENNRFTAQADNINQRKCYDDVVEVSRIQLTS

Tests used:
[1] = target: Recombinant 6xHis-tagged KRas (rKRas; KRas4B NP_004976.2), P01116
[2] = target: GST-HRas (rGST-HRas), P01112
GST-Rit2, Q99578 = target: T1, GST-Rit2, Q99578
[3] = target: Recombinant 6xHis-tagged HRas (rHRas; NP_001123914.1), P01112
[4] = target: Recombinant 6xHis-tagged NRas (rNRas; NP_002515.1), P01111
Chain of Recombinant 6xHis-tagged NRas (rNRas; NP_002515.1), P01111 (P01111 whole entry): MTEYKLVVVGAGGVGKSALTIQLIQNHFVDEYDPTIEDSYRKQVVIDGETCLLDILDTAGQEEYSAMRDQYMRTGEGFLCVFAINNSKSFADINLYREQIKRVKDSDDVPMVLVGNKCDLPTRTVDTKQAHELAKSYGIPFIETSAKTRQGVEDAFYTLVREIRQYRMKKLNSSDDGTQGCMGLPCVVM

Chain of Recombinant 6xHis-tagged HRas (rHRas; NP_001123914.1), P01112 (P01112 whole entry, looked up): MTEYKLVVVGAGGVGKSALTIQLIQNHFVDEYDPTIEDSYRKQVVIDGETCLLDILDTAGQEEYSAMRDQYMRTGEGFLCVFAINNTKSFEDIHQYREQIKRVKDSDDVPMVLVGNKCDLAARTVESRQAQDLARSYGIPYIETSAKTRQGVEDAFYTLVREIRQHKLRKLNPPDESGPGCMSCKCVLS
Chain of GST-HRas (rGST-HRas), P01112 (P01112 whole entry, looked up): as above

Row | Protein | in vitro cleavage, SDS-PAGE [1] | in vitro cleavage of rGST-GTPase, SDS-PAGE [2] | in-vitro cleavage of GST-fusion GTPases (GST-Rit2, Q99578) | in vitro endopeptidase assay, SDS-PAGE [3] | in vitro cleavage with varying concentrations of EDTA, equimolar 10 µM, 30 minutes at 37 C [1] | in vitro cleavage with varying concentrations of phenanthroline, equimolar 10 µM, 30 minutes at 37 C [1] | in vitro endopeptidase assay, SDS-PAGE [1] | in-vitro cleavage reaction of purified proteins [1] | in vitro endopeptidase assay, SDS-PAGE [4]
1 | B1 | The recombinant protein rDUF5Ah was able to cleave rKRas in the in vitro reaction | – | – | – | – | – | – | – | –
2 | B2 | – | DUF5Vv could cleave only HRas | Rit2 was not cleaved at all | showed the cleavage of rKRas, rHRas, and rNRas by rDUF5Vv | Cleavage was still observed | Cleavage was still observed | showed the cleavage of rKRas, rHRas, and rNRas by rDUF5Vv | rKRas was efficiently cleaved within 10 min in a concentration-dependent manner | The cleavage of rNRas was less efficient compared to rKRas and rHRas
3 | B3 | shown to also cleave rKRas | – | – | – | – | – | – | – | –
